Assay results reported in US20050227220A1, “Compositions and Methods for Evaluating and Designing Nuclear Receptor Ligands that Modulate Co-Regulator Affinity” (priority 2002, published 2005).
No end group written: not given here. *: point of attachment. Biotin = O=C1N[C@H]2[C@H](CS[C@H]2CCCCC(=O)*)N1

Key:
[1] = molecular target: T1, PPARδ LBD (Homo sapiens, UniProt Q03181); assay: Fluorescence polarization assay for ligand modulation of nuclear receptor/cofactor peptide affinities; format: biochemical; settings: result in words
T1 construct: made in house; host or cells: bacterial BL21-DE3, vector pRSETA
T1 sequence (Q03181 139-441): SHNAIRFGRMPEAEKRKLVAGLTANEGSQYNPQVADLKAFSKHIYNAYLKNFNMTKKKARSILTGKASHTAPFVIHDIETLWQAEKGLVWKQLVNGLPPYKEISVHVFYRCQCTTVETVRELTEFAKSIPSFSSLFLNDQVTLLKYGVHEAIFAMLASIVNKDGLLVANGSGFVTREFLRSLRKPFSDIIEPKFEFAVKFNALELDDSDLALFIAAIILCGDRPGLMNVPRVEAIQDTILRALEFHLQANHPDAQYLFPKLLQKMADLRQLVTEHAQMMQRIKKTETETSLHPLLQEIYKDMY
Protocol: Such tests were performed quantitatively by measuring the effect of an excess of ligand on the binding affinity of the co-repressor peptide.
All experiments were conducted with buffer containing 10 mM HEPES, pH 7.4, containing 0.15 M NaCl, 3 mM EDTA, 0.005% polysorbate-20 and 5 mM DTT. Varied concentrations of receptor were incubated at room temperature with 10 nM of fluorescein-labeled NCOR ID-C or SMRT ID-C peptides. […] Binding isotherms were constructed and apparent KD values were determined by non-linear least squares fit of the data to an equation for a simple 1:1 interaction. […] Complex formation was monitored by fluorescence polarization as described in methods. […] All assays were performed in duplicate and affinities are the average of at least two independent experiments.

[2] = molecular target: T2, PPARα LBD (Homo sapiens, UniProt Q07869); assay: FRET assay: ligand effect on CBP fragment / NCoR ID-C binding to PPAR LBD; format: biochemical; settings: 10 nM PPAR LBD, CBP (57-454)
T2 construct: made in house; host or cells: bacterial BL21-DE3, vector pRSETA
T2 sequence (Q07869 192-468): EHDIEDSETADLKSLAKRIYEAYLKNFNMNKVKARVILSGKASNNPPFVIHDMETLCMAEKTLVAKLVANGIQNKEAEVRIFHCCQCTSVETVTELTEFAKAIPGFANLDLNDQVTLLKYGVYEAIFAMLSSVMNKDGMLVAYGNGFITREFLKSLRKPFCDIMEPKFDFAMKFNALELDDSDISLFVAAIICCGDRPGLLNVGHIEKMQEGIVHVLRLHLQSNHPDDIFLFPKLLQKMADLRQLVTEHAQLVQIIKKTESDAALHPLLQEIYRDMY
Source text: (§1) The experimentally determined α value is the ratio of cofactor affinities in the presence and absence of a saturating concentration of ligand. This analysis permits a direct comparison of the effects of compounds, independent of cofactor concentration and differences in coregulator affinity for the individual receptors. […] 98(9): p.
(§2) The effects of the coregulator environment on the apparent affinities and selectivities of various ligands were than examined. Experimentally determined pKs and the α values derived from the FRET assay were used to calculate the apparent affinity of the ligand for the receptor/cofactor complex (i.e. K/α).
(§3) FIG. 5 illustrates the effect of ligands on coactivator and corepressor binding to PPAR subtypes determined by FRET.

[3] = molecular target: T1, PPARδ LBD; assay: as above; format: biochemical
Source text: as §1, §2, §3

[4] = molecular target: T3, full length human PPARα (Homo sapiens, UniProt Q07869); assay: Mammalian two-hybrid assay (CV-1 cells); format: cell-based; settings: VP16-PPARα, GAL4-NCoR (2239-2300), result in words
T3 construct: expressed in transfected cells; host or cells: CV-1 cells, vector pVP16 (Clonetech)
T3 sequence (Q07869 1-468): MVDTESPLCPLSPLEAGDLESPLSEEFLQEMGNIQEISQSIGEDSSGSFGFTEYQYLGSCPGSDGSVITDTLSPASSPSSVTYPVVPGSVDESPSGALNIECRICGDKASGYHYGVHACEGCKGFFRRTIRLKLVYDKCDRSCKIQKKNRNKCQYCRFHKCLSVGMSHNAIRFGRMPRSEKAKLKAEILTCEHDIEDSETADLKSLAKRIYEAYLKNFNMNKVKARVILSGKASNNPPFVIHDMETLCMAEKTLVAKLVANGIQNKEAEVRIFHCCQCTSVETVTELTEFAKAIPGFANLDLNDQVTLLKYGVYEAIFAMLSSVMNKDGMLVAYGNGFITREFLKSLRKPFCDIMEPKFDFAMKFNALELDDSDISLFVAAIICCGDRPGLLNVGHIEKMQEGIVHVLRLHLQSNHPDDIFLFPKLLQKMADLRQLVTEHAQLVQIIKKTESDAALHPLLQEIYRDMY
Source text: (§4) Mammalian two-hybrid assays were used to examine the ability of the tyrosine-based class of PPAR ligands to promote association or dissociation of the co-activator CBP and the corepressor NCoR in the context of a cellular environment. The assays for the three PPAR subtypes used full length human PPARα, PPARγ2 or PPARδ fused to the activation domain of VP16 and previously identified interaction domains of CBP and NCoR fused to the DNA binding domain of GAL4.
(§5) Expression plasmids for the VP16-human PPAR constructs were prepared by inserting amplified cDNAs encoding full length PPARα, PPARγ2 and PPARδ fused to amino acids 410-490 of the VP16 viral activation domain, into the expression vector pVP16 (Clonetech). […] The reporter plasmid was (UAS)5-tk-SPAP, and the internal control plasmid for all transfections was β-galactosidase expression vector (pCH110, Amersham).
(§6) CV-1 cells were maintained in culture in DME high glucose medium supplemented with 10% FBS and 2 mM glutamine in a humidified incubator (5% CO2 in air) at 37° C. Cells were harvested 72 hours prior to experimental use and placed in phenol red free D-MEM/F-12 medium with 15 mM HEPES supplemented with 10% charcoal/dextran-treated FBS (HyClone, Logan, Utah). The cells were harvested and seeded at 2.0×10^4 cell per well in a 96-well plate the day prior to transfection. Cells were transfected for 16 hr using Lipofectamine (Life Technologies, Inc., Rockville, Md.) essentially according to the manufacturer's instructions. The total amount of DNA transfected into each well was 80 ng. Transfection mixtures contained 8 ng VP16-PPAR plasmid, 8 ng SPAP reporter, 25 ng of pCH110(β-galactosidase) control plasmid, 35 ng of pBluescript II KS+ (Clonetech) and 4 ng of either coactivator or corepressor plasmid. Transfection quantities for full length PPAR and cofactor plasmids were optimized to generate a signal that was half of the maximal activation. These conditions would allow for dissociation or association to be experimentally determined for each ligand evaluated. Stock solutions of drugs were prepated in DMSO and dilutions were made in phenol red-free D-MEM/F-12 with 15 mM HEPES supplemented with 10% charcoal stripped, delipidated, heat inactivated (62° C. for 35 min) bovine calf serum (Sigma, St. Louis, Mo.) such that the final concentration of DMSO was 0.1%. Transfection mixtures were aspirated and 100 μl, of medium containing drug was added to each well.

[5] = molecular target: T4, full length human PPARδ (Homo sapiens, UniProt Q03181); assay: Mammalian two-hybrid assay (CV-1 cells); format: cell-based; settings: VP16-PPARδ, GAL4-NCoR (2239-2300), result in words
T4 construct: expressed in transfected cells; host or cells: CV-1 cells, vector pVP16 (Clonetech)
Source text: as §4, §5, §6

[6] = molecular target: T5, PPARδ LBD / RXRα LBD (Homo sapiens, UniProt Q03181); assay: FRET assay: ligand effect on RXRα LBD binding to PPAR LBD; settings: 10 nM PPAR LBD, 4 concentrations of RXR
T5 sequence (Q03181 139-441): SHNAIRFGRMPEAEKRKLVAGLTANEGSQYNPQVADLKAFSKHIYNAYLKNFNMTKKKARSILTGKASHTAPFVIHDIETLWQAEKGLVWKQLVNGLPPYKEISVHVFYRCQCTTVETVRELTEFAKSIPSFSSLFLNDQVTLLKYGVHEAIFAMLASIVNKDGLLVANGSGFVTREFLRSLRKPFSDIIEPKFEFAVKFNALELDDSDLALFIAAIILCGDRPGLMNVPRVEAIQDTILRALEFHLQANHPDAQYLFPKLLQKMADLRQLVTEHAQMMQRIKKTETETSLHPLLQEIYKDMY
T5 sequence (P19793 225-462 partner limits assumed): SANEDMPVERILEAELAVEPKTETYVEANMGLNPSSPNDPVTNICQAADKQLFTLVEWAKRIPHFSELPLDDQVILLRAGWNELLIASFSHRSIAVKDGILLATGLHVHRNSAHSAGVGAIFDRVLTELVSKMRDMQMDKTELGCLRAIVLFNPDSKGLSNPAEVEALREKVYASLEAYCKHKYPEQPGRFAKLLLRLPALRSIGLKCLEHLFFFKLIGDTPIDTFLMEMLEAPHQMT

[7] = molecular target: T6, VP16-human PPARα (full length) (human, UniProt P06492 410-490; Q07869 1-468); assay: mammalian two-hybrid in CV-1 cells
T6 construct: also called VP16 full length PPARα

[8] = molecular target: T7, VP16-human PPARγ2 (full length) (human, UniProt P06492 410-490; P37231 1-505); assay: mammalian two-hybrid in CV-1 cells
T7 construct: also called VP16 full length PPARγ

[9] = molecular target: T8, VP16-human PPARδ (full length) (human, UniProt P06492 410-490; Q03181 1-441); assay: mammalian two-hybrid in CV-1 cells
T8 construct: also called VP16 full length PPARδ

[10] = molecular target: T9, human PPARγ ligand binding domain (amino acids 206-477) (human, UniProt P37231-2 206-477); assay: fluorescence polarization, apparent affinity, no ligand
T9 construct: range 206-477; placed at the N-terminus here; Biotinylated for FRET; also called PPARγ LBD
T9 sequence: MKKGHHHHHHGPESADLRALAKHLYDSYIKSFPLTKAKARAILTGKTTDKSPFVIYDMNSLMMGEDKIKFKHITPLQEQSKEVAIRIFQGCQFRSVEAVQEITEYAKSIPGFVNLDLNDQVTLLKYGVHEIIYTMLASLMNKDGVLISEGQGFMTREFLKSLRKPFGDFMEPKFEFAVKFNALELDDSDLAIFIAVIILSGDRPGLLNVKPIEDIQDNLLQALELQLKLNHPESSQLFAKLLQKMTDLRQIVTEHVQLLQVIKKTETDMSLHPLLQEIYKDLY

[11] = molecular target: T10, human PPARδ ligand binding domain (amino acids 139-441) (human, UniProt Q03181 139-441, Biotinylated (site not stated) in the FRET assays; unlabelled in fluorescence polarization and SPR.); assay: as above
T10 construct: placed at the N-terminus here; Biotinylated for FRET; also called PPARδ LBD
T10 sequence: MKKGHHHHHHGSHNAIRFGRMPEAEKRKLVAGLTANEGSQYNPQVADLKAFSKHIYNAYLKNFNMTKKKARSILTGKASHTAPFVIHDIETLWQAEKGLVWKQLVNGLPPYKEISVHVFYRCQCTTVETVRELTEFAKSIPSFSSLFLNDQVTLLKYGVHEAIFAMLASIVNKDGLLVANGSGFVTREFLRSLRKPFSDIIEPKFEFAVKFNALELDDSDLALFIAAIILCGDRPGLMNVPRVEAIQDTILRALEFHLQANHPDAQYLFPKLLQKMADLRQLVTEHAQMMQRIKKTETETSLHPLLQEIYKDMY

[12] = molecular target: T9, human PPARγ ligand binding domain …; assay: fluorescence polarization, apparent affinity, with GW1929
[13] = molecular target: T10, human PPARδ ligand binding domain …; assay: as above
[14] = molecular target: T9, human PPARγ ligand binding domain …; assay: fluorescence polarization, apparent affinity, with rosiglitazone
[15] = molecular target: T10, human PPARδ ligand binding domain …; assay: as above

T4 sequence (Q03181 whole entry, the tested form may be a part): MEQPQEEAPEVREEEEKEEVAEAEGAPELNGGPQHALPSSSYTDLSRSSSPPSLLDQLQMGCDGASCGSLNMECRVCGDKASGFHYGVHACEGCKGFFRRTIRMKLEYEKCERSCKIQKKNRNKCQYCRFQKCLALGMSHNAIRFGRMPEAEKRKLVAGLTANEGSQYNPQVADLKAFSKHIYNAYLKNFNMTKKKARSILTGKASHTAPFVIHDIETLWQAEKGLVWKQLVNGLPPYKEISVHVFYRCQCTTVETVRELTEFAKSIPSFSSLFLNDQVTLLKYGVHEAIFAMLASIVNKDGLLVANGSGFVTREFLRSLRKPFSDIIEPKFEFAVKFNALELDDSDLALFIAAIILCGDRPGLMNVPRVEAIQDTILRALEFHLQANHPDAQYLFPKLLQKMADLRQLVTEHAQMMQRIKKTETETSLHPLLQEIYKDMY

Molecule: CN(CCOc1ccc(C[C@H](Nc2ccccc2C(=O)c2ccccc2)C(=O)O)cc1)c1ccccn1 [GW1929]
- effect on PPARδ interaction with the coactivator peptide (TRAP220) [1]: little or no effect
- effect on apparent affinity of PPARα for the co-activator fragment from CBP [2]: increased the apparent affinity
- effect on apparent affinity of PPARδ for the co-activator fragment from CBP ([3]; 10 nM PPAR LBD, CBP (57-454)): increased the apparent affinity
- effect on affinity of PPARδ for the co-repressor peptide ([3]; 10 nM PPAR LBD, NCoR ID-C): greatest effect
- log α (NCoR association with PPARδ) ([3]; α = ratio of cofactor affinities in presence and absence of saturating ligand): 0.52
- effect on PPARα interaction with NCoR [4]: neither GW1929 nor GW7845 were able to promote association with NCoR
- effect on PPARδ interaction with NCoR [5]: slightly promote association
- promotion of association of PPARδ with RXR [6]: most effective

B1: GAL4-NcoR (2012-2103) (other)
chain: MKLLSSIEQACDICRLKKLKCSKEKPKCAKCLKNNWECRYSPKTKRSPLTRAHLTEVESRLERLEQLFLLIFPREDLDMILKMDSLQDIKALLTGLFVQDNVNKDAVTDRLASVETDMPLTLRQHRISATSSSEESSNKGQRQLTVSGPLHHYRPQQESPSPQQQLPPSSQAEGMGQVPRTHRLITLADHICQIITQDFARNQVSSQTPQQPPTSTFQNSPSALVSTPVRTKTSNRYSP
notes: range 1-147;range 2012-2103; also called NCoR fragment (2012-2103) that contained NCoR ID-N
- binding result [7]: no binding
- binding result [8]: no binding
- binding result [9]: no binding

Molecule: Biotin-GHGEDFSKVSQNPILTSLLQITGNG (not fully specified; printed as biotin-GHGEDFSKVSQNPILTSLLQITGNG, also called TRAP220 575-599) [TRAP220 peptide (amino acids 575-599)]
- Kd [10]: 3900 nM
- Kd [11]: 2300 nM
- Kd [12]: 790 nM
- Kd [13]: 3400 nM
- Kd [14]: 1500 nM
- Kd [15]: 1800 nM
